# Laboratory results reported in patent US9212226B2, “Amino acid sequences directed against CXCR4 and other GPCRs and compounds comprising the same” (Ablynx N.V., priority 2008, dated 2015).
# Entries after “also recorded” stand apart in the source; their conditions may differ.
# Legend:
# CXCR4 (N119A) = CXCR4 (N119A) (Homo sapiens, UniProt P61073, N119A); experiment: Basal inositol phosphate accumulation in HEK293T cells expressing CXCR4 (N119A); format: cell-based
# Experimental: (§1) HEK293T cells were maintained at 37° C. in a humidified 5% CO2, 95% air atmosphere in Dulbecco's modified Eagle's medium (DMEM) containing 2 mM L-glutamine, 50 IU/ml penicillin, 50 μg/ml streptomycin, and 10% (v/v) fetal calf serum. Jurkat cells were cultured in a humidified 5% CO2, 95% air atmosphere in a 1:1 mixture of Dulbecco's modified Eagle's medium (DMEM) and Ham's F12 medium containing 2 mM L-glutamine, 50 IU/ml penicillin, 50 μg/ml streptomycin, and 10% (v/v) fetal calf serum. […] [^125 I]-Labelling— Radiolabeling of Nanobodies with ^125I was performed using the Iodo-gen method (Pierce, Rockford, Ill.) according to the manufacturer's protocol. ^125I-labeled Nanobodies was separated from free iodine (>99%) using a Sephadex G-25 gel filtration column (Amersham Biosciences, Piscataway, N.J.). […] Competition Binding Assays— Membranes from HEK293T cells transiently expressing CXCR3 or CXCR4 were prepared 48 h after transfection as follows. Cells were washed and scraped from the cell culture dishes with ice-cold PBS containing 1 mm EDTA. The scraped cells were pelleted at 1500×g for 10 min at 4° C. The pellet was washed and then resuspended in ice-cold membrane buffer (15 mM Tris, pH 7.5, 1 mM EGTA, 0.3 mM EDTA, and 2 mM MgCl2). The cell suspension was homogenized by 10 strokes at 1200 rpm using a Teflon-glass homogenizer and rotor and further subjected to three freeze-thaw cycles using liquid nitrogen. Membranes were separated by centrifugation at 40,000 g for 25 min at 4° C. The membrane pellet was washed and resuspended in ice-cold Tris-sucrose buffer (20 mM Tris, pH 7.4, and 250 mM sucrose) and frozen in liquid nitrogen. The total protein was determined using a Bradford assay (Bio-Rad). Periplasmas (1:10) or ligands were pre-incubated with membranes in binding buffer (50 mM HEPES (pH 7.4), 1 mM CaCl2, 5 mM MgCl2, 100 mM NaCl, 0.5% bovine serum albumin) supplemented with 0.5% BSA for 1 h at 22° C. before the addition of [^125I]-CXCL12 (40 pM) or [^125I]-238D2 (3 nM) or [^125I]-238D4 (3 nM) for additional 2 h at 22° C. […] Membranes were then harvested over polyethylenimine (0.5%)-treated Whatman GF/C filter plates and washed three times with ice cold binding buffer containing 500 mM NaCl. Plates were counted by liquid scintillation. Inositol Phosphate Accumulation Assay— 24 hours post transfection with pcDNA3.1-CXCR4 and pcDNA1-HA-mG {alpha} qi5 (see Verzijl et al, 2008 supra), 250.000 cells were seeded into 24-wells plates and labelled overnight using inositol-free minimal essential medium supplemented with 1 μCi myo-[2-^3H]-inositol. The next day, the cells were washed once to remove not incorporated myo-[2-^3H]-inositol. […] In agonist experiments, the cells were directly stimulated with test compounds and LiCl (10 mM) in assay buffer for 2 h at 37° C. The stimulation was stopped by aspirating the stimulation medium and adding ice-cold 10 mM formic acid. The accumulated inositol phosphates were isolated by anion exchange chromatography and counted by liquid scintillation. CRE Reporter Gene Assay— HEK239T cells were transfected with pCRE/β-galactosidase (Chen W, Shields T S, Stork P J S, Cone R D (1995) Anal Biochem 226:349-354) and plasmids (pcDEF3 or pcDNA3.1) encoding the indicated receptors. 40,000 transfected cells per well were seeded into 96 well plates and grown in DMEM supplemented with 10% fetal calf serum. The medium was replaced 32 h after transfection by serum-free DMEM supplemented with 0.5% bovine serum albumin and ligands as indicated. […]
# CXCR4 [1] = molecular target: T1, CXCR4 (Homo sapiens, UniProt P61073); experiment: [125I]-238D4 competition binding on membranes from HEK293T cells transiently expressing CXCR4; settings: for displacement of [125I]-238D4 from CXCR4: [125I]-238D4 3 nM
# T1 sequence (P61073 whole entry): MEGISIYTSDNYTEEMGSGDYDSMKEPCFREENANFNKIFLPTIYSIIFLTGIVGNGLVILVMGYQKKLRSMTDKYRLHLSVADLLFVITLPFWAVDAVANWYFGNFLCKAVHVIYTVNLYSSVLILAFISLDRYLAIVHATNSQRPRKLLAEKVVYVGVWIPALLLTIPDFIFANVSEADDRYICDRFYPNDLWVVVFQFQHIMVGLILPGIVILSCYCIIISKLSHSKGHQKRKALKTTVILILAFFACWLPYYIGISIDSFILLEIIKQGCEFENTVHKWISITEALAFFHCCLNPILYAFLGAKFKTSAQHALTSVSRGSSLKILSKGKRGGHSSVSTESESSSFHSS
# Experimental: (§2) HEK293T cells were maintained at 37° C. in a humidified 5% CO2, 95% air atmosphere in Dulbecco's modified Eagle's medium (DMEM) containing 2 mM L-glutamine, 50 IU/ml penicillin, 50 μg/ml streptomycin, and 10% (v/v) fetal calf serum. Jurkat cells were cultured in a humidified 5% CO2, 95% air atmosphere in a 1:1 mixture of Dulbecco's modified Eagle's medium (DMEM) and Ham's F12 medium containing 2 mM L-glutamine, 50 IU/ml penicillin, 50 μg/ml streptomycin, and 10% (v/v) fetal calf serum. […] [^125 I]-Labelling— Radiolabeling of Nanobodies with ^125I was performed using the Iodo-gen method (Pierce, Rockford, Ill.) according to the manufacturer's protocol. ^125I-labeled Nanobodies was separated from free iodine (>99%) using a Sephadex G-25 gel filtration column (Amersham Biosciences, Piscataway, N.J.). […] Competition Binding Assays— Membranes from HEK293T cells transiently expressing CXCR3 or CXCR4 were prepared 48 h after transfection as follows. Cells were washed and scraped from the cell culture dishes with ice-cold PBS containing 1 mm EDTA. The scraped cells were pelleted at 1500×g for 10 min at 4° C. The pellet was washed and then resuspended in ice-cold membrane buffer (15 mM Tris, pH 7.5, 1 mM EGTA, 0.3 mM EDTA, and 2 mM MgCl2). The cell suspension was homogenized by 10 strokes at 1200 rpm using a Teflon-glass homogenizer and rotor and further subjected to three freeze-thaw cycles using liquid nitrogen. Membranes were separated by centrifugation at 40,000 g for 25 min at 4° C. The membrane pellet was washed and resuspended in ice-cold Tris-sucrose buffer (20 mM Tris, pH 7.4, and 250 mM sucrose) and frozen in liquid nitrogen. The total protein was determined using a Bradford assay (Bio-Rad). […] Membranes were then harvested over polyethylenimine (0.5%)-treated Whatman GF/C filter plates and washed three times with ice cold binding buffer containing 500 mM NaCl. Plates were counted by liquid scintillation. Inositol Phosphate Accumulation Assay— 24 hours post transfection with pcDNA3.1-CXCR4 and pcDNA1-HA-mG {alpha} qi5 (see Verzijl et al, 2008 supra), 250.000 cells were seeded into 24-wells plates and labelled overnight using inositol-free minimal essential medium supplemented with 1 μCi myo-[2-^3H]-inositol. The next day, the cells were washed once to remove not incorporated myo-[2-^3H]-inositol. […] In agonist experiments, the cells were directly stimulated with test compounds and LiCl (10 mM) in assay buffer for 2 h at 37° C. The stimulation was stopped by aspirating the stimulation medium and adding ice-cold 10 mM formic acid. The accumulated inositol phosphates were isolated by anion exchange chromatography and counted by liquid scintillation. CRE Reporter Gene Assay— HEK239T cells were transfected with pCRE/β-galactosidase (Chen W, Shields T S, Stork P J S, Cone R D (1995) Anal Biochem 226:349-354) and plasmids (pcDEF3 or pcDNA3.1) encoding the indicated receptors. 40,000 transfected cells per well were seeded into 96 well plates and grown in DMEM supplemented with 10% fetal calf serum. The medium was replaced 32 h after transfection by serum-free DMEM supplemented with 0.5% bovine serum albumin and ligands as indicated. […] The β-galactosidase activity was determined by the measurement of absorption at 420 nm with a PowerwaveX340 plate reader (Bio-Tek Instruments Inc., Winooski, Vt.) after incubation with the assay buffer when the OD420 value for forskolin (3 μM) controls reached 0.4-0.6. Chemotaxis Assay— The chemotactic responsiveness of Jurkat 3D cells was assessed using ChemoTx™ plates (Receptor Technologies Ltd., Oxon, UK) in which a upper cell-containing compartment is separated from a lower chemoattractant-containing compartment by a polyvinylpyrollidone-free polycarbonate filter with 5-μm pores. Cells were harvested, washed and resuspended in RPMI containing 0.5% bovine serum albumin and then loaded to 150,000 cells per well in a volume of 25 μl into the upper compartment of the chemotaxis chamber.
# CXCR4 [2] = molecular target: T1, CXCR4; experiment: [125I]-238D2 competition binding on membranes from HEK293T cells transiently expressing CXCR4; settings: for displacement of [125I]-238D2 from CXCR4: [125I]-238D2 3 nM
# Experimental: as §2
# CXCR4 [3] = molecular target: T1, CXCR4; experiment: [125I]-CXCL12 competition binding on membranes from HEK293T cells transiently expressing CXCR4; settings: for Rel. potency, relative to monovalent 238D2 / Rel. potency, relative to monovalent 238D4: [125I]-CXCL12 displacement; for Rel. potency, relative to monovalent 238D2: potency relative to those of monovalent 238D2; for Rel. potency, relative to monovalent 238D4: potency relative to those of monovalent 238D4
# Experimental: as §2
# [4] = tested on: Jurkat cells endogenously expressing CXCR4; experiment: Chemotaxis assay (ChemoTx plates) with Jurkat cells towards CXCL12; format: cell-based; settings: for inhibition of migration of Jurkat cells towards CXCL12: 300 pM CXCL12; for Imax (%), Chemotaxis, bivalent Nanobodies: Jurkat/0.3 nM CXCL12, mean ± S.E.M.; for pKi, antagonism of the chemoattractant effects of CXCL12: n=3
# Experimental: as §1, with “indicated. Following 16 h of ligand incubation, the medium was removed, the cells were lysed in 100 μl of assay buffer (100 mM sodium phosphate buffer at pH 8.0, 4 mM 2-nitrophenol-β-D-pyranoside, 0.5% Triton X-100, 2 mM MgSO4, 0.1 mM MnCl2, and 40 mM β-mercaptoethanol) and incubated at room temperature.” for “indicated.”
# [5] = membranes from HEK293T cells transiently expressing CXCR4, mean ± S.E.M.
# [6] = at highest test concentration of 0.5 μM (footnote a: no significant displacement; b: maximum not reached)
# Sequence of CXCR4 (N119A) (P61073 whole entry N119A): as the sequence (P61073 whole entry) above, with N119A counted along it
displacement of [125I]-238D4 from CXCR4 (CXCR4 [1]),displacement of [125I]-238D2 from CXCR4 (CXCR4 [2]),"Rel. potency, relative to monovalent 238D2 (CXCR4 [3])","Rel. potency, relative to monovalent 238D4 (CXCR4 [3])","Displacem. (%) of [125I]-CXCL12 (maximal displacement), bivalent Nanobodies (CXCR4 [3]; [5]) [%]","pKi, [125I]-CXCL12, bivalent Nanobodies (CXCR4 [3]; [5])",Molecule,inhibition of migration of Jurkat cells towards CXCL12 [4],"Imax (%), Chemotaxis, bivalent Nanobodies [4] [%]","pKi, antagonism of the chemoattractant effects of CXCL12 [4]",further results
displaces,displaces,–,–,–,–,"c1cc(CN2CCCNCCNCCCNCC2)ccc1CN1CCCNCCNCCCNCC1 [AMD3100, reference compound]",–,–,–,"functional profile at CXCR4 (N119A) (CXCR4 (N119A); ligand-induced alteration of basal inositol phosphate accumulation, listed as plerixafor): neutral antagonist; also recorded: Neither significant agonistic nor inverse antagonistic activity; effect on the nanobody-induced reduction of basal inositol phosphate accumulation (CXCR4 (N119A); with 238D4, L3 and L8): antagonized; Displacem. (%) of [125I]-238D4 (maximal displacement) (CXCR4 [1]; [5]): 99 ± 4%; Displacem. (%) of [125I]-238D2 (maximal displacement) (CXCR4 [2]; [5]): 102 ± 1%; Displacem. (%) of [125I]-CXCL12 (maximal displacement) (CXCR4 [3]; [5]): 94 ± 2%"
–,–,–,–,–,–,"CXCL12: stromal-derived-factor-1, the natural (endogenous) ligand for CXCR4 [reference compound]",–,–,–,stimulation of the mutant receptor (CXCR4 (N119A); inositol phosphate accumulation): 0.4 fold over basal
displaces,displaces,–,–,–,–,"238C5: Nanobody (VHH) raised against human CXCR4, SEQ ID NO: 243 (protein, Nanobody, Nanobody constructs or fragments thereof) VHH: EVQLMESGGGLVQAGGSLRLACAASGFTFEDYAIGWFRKAPGKEREGVSCISGSDGSTTYADSVKGRFTISTDNAKNTVYLEMNSLKPEDTAVYYCAQQYGVGGRVVCPGPYEYDVWGQGTQVTVSS",–,–,–,"Displacem. (%) of [125I]-238D4 at 0.5 μM (CXCR4 [1]; [6]): 38 ± 4^b %; Displacem. (%) of [125I]-238D2 at 0.5 μM (CXCR4 [2]; [6]): 45 ± 5^b %; binding mode at CXCR4 (CXCR4 [2]; displacement of labelled Nanobodies only at ≧100 nM): low affinity allosteric CXCR4 ligand; Displacem. (%) of [125I]-CXCL12 at 0.5 μM (CXCR4 [3]; at highest test concentration of 0.5 μM (footnote a: no significant displacement)): 0^a %; affinity to CXCR4 (CXCR4 [3]; in words): low affinity; displacement of specifically bound [125I]-CXCL12 (CXCR4 [3]; purified ligands, highest Nanobody test concentration 0.5 μM): unable to displace; Binding (binding efficiency, competition binding with [125I]-CXCL12) (CXCR4 [3]; screening of Nanobody clone pools, membranes from HEK293T cells transiently expressing CXCR4): + (+ = 30-69%)"
–,–,27,17,103 ± 4,9.44 ± 0.07,"238D2-20GS-238D4: heterobivalent Nanobody, 238D2 linked to 238D4 by a 20 amino acid GGGGS linker (protein, Nanobody, Nanobody constructs or fragments thereof, heterobivalent Nanobody, 238D2 linked to 238D4 by a 20 amino acid GGGGS linker) EVQLVESGGGLVQTGGSLRLSCAASGFTFSSYAMSWVRQAPGKGLEWVSGIKSSGDSTRYAGSVKGRFTISRDNAKNMLYLQMYSLKPEDTAVYYCAKSRVSRTGLYTYDNRGQGTQVTVSSGGGGSGGGGSGGGGSGGGGSEVQLMESGGGLVQAGGSLRLSCAASGRTFNNYAMGWFRRAPGKEREFVAAITRSGVRSGVSAIYGDSVKDRFTISRDNAKNTLYLQMNSLKPEDTAVYTCAASAIGSGALRRFEYDYSGQGTQVTVSS",fully antagonized,100 ± 4,10.19±0.27,increase in affinity to CXCR4 over monovalent 238D2 (CXCR4 [3]; heterobivalent construct): 27 fold; increase in affinity to CXCR4 over monovalent 238D4 (CXCR4 [3]; heterobivalent construct): 17 fold
–,–,28,17,92 ± 6,9.45 ± 0.09,"238D2-15GS-238D4: heterobivalent Nanobody, 238D2 linked to 238D4 by a 15 amino acid GGGGS linker (protein, Nanobody, Nanobody constructs or fragments thereof, heterobivalent Nanobody, 238D2 linked to 238D4 by a 15 amino acid GGGGS linker) EVQLVESGGGLVQTGGSLRLSCAASGFTFSSYAMSWVRQAPGKGLEWVSGIKSSGDSTRYAGSVKGRFTISRDNAKNMLYLQMYSLKPEDTAVYYCAKSRVSRTGLYTYDNRGQGTQVTVSSGGGGSGGGGSGGGGSEVQLMESGGGLVQAGGSLRLSCAASGRTFNNYAMGWFRRAPGKEREFVAAITRSGVRSGVSAIYGDSVKDRFTISRDNAKNTLYLQMNSLKPEDTAVYTCAASAIGSGALRRFEYDYSGQGTQVTVSS",fully antagonized,107 ± 5,9.86±0.04,–
